Laboratory results reported in paper PMC7093153 (eLife, 2020).

B1: Swi5-Sfr1 complex (wild type, full-length Sfr1) (complex, S. pombe)
chain 1: MEKSQLESRVHLLEQQKEQLESSLQDALAKLKNRDAKQTVQKHIDLLHTYNEIRDIALGMIGKVAEHEKCTSVELFDRFGVNGSE
chain 2: MSQTINSELNENATSQCKEDLKVSLSESDLRDSQGQLGIENPPKCNNSGNHSDNLGFIEQSETVHPENEKALTPDLRDTKIHTSLPITTPFSKKRAREAKNILLKPFKSPLRQTASPQVADTNLKPSLAVTNLNSDETNTSSEPVTSPLRTTPNSIKRQKRLFKSPISNCLNPKSDPEITQLLSRRLKLEKEVRNLQEQLITAETARKVEAKNEDKDLQTLIQKWKNAAQQAAEVLFKPMAERIRLAGGVTQSFRIEEGENKGQIQEVRTEFTMSMFLNQFGVPVHLMSFDEENGDWKS
B2: Rad51 (S. pombe), purified (natural protein, UniProt P36601 1-365, looked up)
chain: MADTEVEMQVSAADTNNNENGQAQSNYEYDVNVQDEEDEAAAGPMPLQMLEGNGITASDIKKIHEAGYYTVESIAYTPKRQLLLIKGISEAKADKLLGEASKLVPMGFTTATEYHIRRSELITITTGSKQLDTLLQGGVETGSITELFGEFRTGKSQICHTLAVTCQLPIDMGGGEGKCLYIDTEGTFRPVRLLAVADRYGLNGEEVLDNVAYARAYNADHQLELLQQAANMMSESRFSLLVVDSCTALYRTDFSGRGELSARQMHLARFMRTLQRLADEFGIAVVITNQVVAQVDGISFNPDPKKPIGGNILAHSSTTRLSLRKGRGEQRICKIYDSPCLPESEAIFAINSDGVGDPKEIIAPV

Tests used:
[1] = biological target: B2; assay: cell-based or functional assay
SEC = biological target: the molecule itself; assay: SEC
[2] = biological target: B1; assay: pull-down

Binder: B1
- Rad51-dependent ATP turnover, Swi5-Sfr1:Rad51 ratio of 1:20 [1]: 1.85 fold

Binder: B2
- binding result (SEC): binds
- binding result [2]: binds
